# Test results reported in PMC10299155, “Single-Molecule Analysis of the Improved Variants of the G-Quadruplex Recognition Protein G4P”.
# T1: G4P (artificial (RSM derived from human RHAU/DHX36))
# T1 sequence: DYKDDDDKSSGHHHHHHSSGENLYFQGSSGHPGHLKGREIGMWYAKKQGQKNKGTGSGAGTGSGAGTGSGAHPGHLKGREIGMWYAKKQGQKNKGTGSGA
# T2: 2FJG4P (artificial (motif derived from human FANCJ))
# T2 sequence: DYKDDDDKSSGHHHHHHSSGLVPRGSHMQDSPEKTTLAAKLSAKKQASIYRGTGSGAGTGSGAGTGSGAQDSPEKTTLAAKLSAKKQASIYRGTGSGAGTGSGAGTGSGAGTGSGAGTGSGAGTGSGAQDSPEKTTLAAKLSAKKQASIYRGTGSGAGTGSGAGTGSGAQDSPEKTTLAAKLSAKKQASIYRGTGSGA
# T3: FJG4P (artificial (motif derived from human FANCJ))
# T3 sequence: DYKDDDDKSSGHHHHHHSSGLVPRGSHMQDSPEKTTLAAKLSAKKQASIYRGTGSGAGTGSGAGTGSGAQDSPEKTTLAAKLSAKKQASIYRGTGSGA
# T4: G4P (artificial (RSM derived from human …))
# T4 chain: T1 sequence
# T5: 2G4P (artificial (RSM derived from human …))
# T5 chain: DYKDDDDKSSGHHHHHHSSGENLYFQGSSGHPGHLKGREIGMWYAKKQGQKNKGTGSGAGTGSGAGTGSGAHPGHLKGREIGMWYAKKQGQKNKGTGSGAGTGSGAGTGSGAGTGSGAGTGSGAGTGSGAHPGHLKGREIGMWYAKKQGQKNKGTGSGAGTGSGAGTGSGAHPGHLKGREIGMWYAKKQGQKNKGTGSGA
# T6: FJG4P (artificial (motif derived from human …))
# T6 chain: T3 sequence
# T7: 2FJG4P (artificial (motif derived from human …))
# T7 chain: T2 sequence
# B1: hTelG4 (smTIRFM tethering) (mixed)
# DNA 1: TGGCGACGGCAGCGAGGCTTAGGGTTAGGGTTAGGGTTTAGGGTTAGGG
# DNA 2: GCCTCGCTGCCGTCGCCA
# B2: 2hTelG4 (mass photometry) (structured_DNA)
# DNA: TTAGGGTTAGGGTTAGGGTTTAGGGTTAGGGTTAGGGTTAGGGTTAGGGTTTAGGGTTAGGG
# B3: c-MYCG4 (smTIRFM tethering) (mixed)
# DNA 1: TGGCGACGGCAGCGAGGCTGGGTGGGTAGGGTGGGTTT
# DNA 2: GCCTCGCTGCCGTCGCCA
# Key:
# [1] = system: T1, G4P (artificial (RSM derived from human RHAU/DHX36)); test: smTIRFM (koff/kon); conditions: EMSA: DNA annealed in 200 mM Tris pH 7.4, 100 mM KCl, 1 mM EDTA; binding 10 min at 25 C, native PAGE; smTIRFM: 100 pM tethered DNA, 100-5000 pM protein, buffer …
# [2] = system: T2, 2FJG4P (artificial (motif derived from human FANCJ)); test: smTIRFM (koff/kon); conditions: EMSA: DNA annealed in 200 mM Tris pH 7.4, 100 mM KCl, 1 mM EDTA; binding 10 min at 25 C, native PAGE; smTIRFM: 100 pM tethered DNA, 100-5000 pM protein, buffer …
# [3] = system: T3, FJG4P (artificial (motif derived from human FANCJ)); test: smTIRFM (koff/kon); conditions: EMSA: DNA annealed in 200 mM Tris pH 7.4, 100 mM KCl, 1 mM EDTA; binding 10 min at 25 C, native PAGE; smTIRFM: 100 pM tethered DNA, 100-5000 pM protein, buffer …
# G4P [4] = biological target: T4, G4P; test: smTIRFM (koff/kon); kon 0.43e9 M-1 s-1, koff 0.67 s-1; EMSA: DNA annealed in 200 mM Tris pH 7.4, 100 mM KCl, 1 mM EDTA; binding 10 min at 25 C, native PAGE; smTIRFM: 100 pM tethered DNA, 100-5000 pM protein, buffer; conditions: protein: recombinant; tags: N-terminal FLAG-6xHis; label: 3' biotin on strand 2; 18 bp duplex with 3' ssDNA tail folded as G4, mixed topology
# 2G4P [5] = biological target: T5, 2G4P; test: smTIRFM (koff/kon); kon 0.0845e9 M-1 s-1, koff 0.29 s-1; EMSA: DNA annealed in 200 mM Tris pH 7.4, 100 mM KCl, 1 mM EDTA; binding 10 min at 25 C, native PAGE; smTIRFM: 100 pM tethered DNA, 100-5000 pM protein, buffer; conditions: protein: recombinant; tags: N-terminal FLAG-6xHis; label: 3' biotin on strand 2; 18 bp duplex with 3' ssDNA tail folded as G4, mixed topology
# FJG4P [6] = biological target: T6, FJG4P; test: smTIRFM (koff/kon); kon 0.01e9 M-1 s-1, koff 0.33 s-1; EMSA: DNA annealed in 200 mM Tris pH 7.4, 100 mM KCl, 1 mM EDTA; binding 10 min at 25 C, native PAGE; smTIRFM: 100 pM tethered DNA, 100-5000 pM protein, buffer; conditions: protein: recombinant; tags: N-terminal FLAG-6xHis; label: 3' biotin on strand 2; 18 bp duplex with 3' ssDNA tail folded as G4, mixed topology
# 2FJG4P [7] = biological target: T7, 2FJG4P; test: smTIRFM (koff/kon); kon 0.0339e9 M-1 s-1, koff 0.4 s-1; EMSA: DNA annealed in 200 mM Tris pH 7.4, 100 mM KCl, 1 mM EDTA; binding 10 min at 25 C, native PAGE; smTIRFM: 100 pM tethered DNA, 100-5000 pM protein, buffer; conditions: protein: recombinant; tags: N-terminal FLAG-6xHis; label: 3' biotin on strand 2; 18 bp duplex with 3' ssDNA tail folded as G4, mixed topology
# 2G4P [8] = biological target: T5, 2G4P; test: mass photometry; higher molecular weight complexes; EMSA: DNA annealed in 200 mM Tris pH 7.4, 100 mM KCl, 1 mM EDTA; binding 10 min at 25 C, native PAGE; smTIRFM: 100 pM tethered DNA, 100-5000 pM protein, buffer; conditions: protein: recombinant; tags: N-terminal FLAG-6xHis; two G4s, mixed topology
# 2FJG4P [9] = biological target: T7, 2FJG4P; test: mass photometry; largest network size; EMSA: DNA annealed in 200 mM Tris pH 7.4, 100 mM KCl, 1 mM EDTA; binding 10 min at 25 C, native PAGE; smTIRFM: 100 pM tethered DNA, 100-5000 pM protein, buffer; conditions: protein: recombinant; tags: N-terminal FLAG-6xHis; two G4s, mixed topology
# FJG4P [10] = biological target: T6, FJG4P; test: EMSA; no detectable binding; EMSA: DNA annealed in 200 mM Tris pH 7.4, 100 mM KCl, 1 mM EDTA; binding 10 min at 25 C, native PAGE; smTIRFM: 100 pM tethered DNA, 100-5000 pM protein, buffer; conditions: protein: recombinant; tags: N-terminal FLAG-6xHis; label: 5' fluorescein; intramolecular G4, mixed topology
# G4P [11] = biological target: T4, G4P; test: EMSA; EMSA: DNA annealed in 200 mM Tris pH 7.4, 100 mM KCl, 1 mM EDTA; binding 10 min at 25 C, native PAGE; smTIRFM: 100 pM tethered DNA, 100-5000 pM protein, buffer; conditions: protein: recombinant, tags: N-terminal FLAG-6xHis
# 2G4P [12] = biological target: T5, 2G4P; test: as above; conditions: protein: recombinant, tags: N-terminal FLAG-6xHis
# 2FJG4P [13] = biological target: T7, 2FJG4P; test: mass photometry; higher molecular weight complexes; EMSA: DNA annealed in 200 mM Tris pH 7.4, 100 mM KCl, 1 mM EDTA; binding 10 min at 25 C, native PAGE; smTIRFM: 100 pM tethered DNA, 100-5000 pM protein, buffer; conditions: protein: recombinant; tags: N-terminal FLAG-6xHis; G4, mixed topology
# FJG4P [14] = biological target: T6, FJG4P; test: smTIRFM (koff/kon); kon 3.45e9 M-1 s-1, koff 0.94 s-1; EMSA: DNA annealed in 200 mM Tris pH 7.4, 100 mM KCl, 1 mM EDTA; binding 10 min at 25 C, native PAGE; smTIRFM: 100 pM tethered DNA, 100-5000 pM protein, buffer; conditions: protein: recombinant; tags: N-terminal FLAG-6xHis; label: 3' biotin on strand 2; 18 bp duplex with 3' ssDNA tail folded as parallel G4
# 2FJG4P [15] = biological target: T7, 2FJG4P; test: smTIRFM (koff/kon); kon 4.7e9 M-1 s-1, koff 1.0 s-1; EMSA: DNA annealed in 200 mM Tris pH 7.4, 100 mM KCl, 1 mM EDTA; binding 10 min at 25 C, native PAGE; smTIRFM: 100 pM tethered DNA, 100-5000 pM protein, buffer; conditions: protein: recombinant; tags: N-terminal FLAG-6xHis; label: 3' biotin on strand 2; 18 bp duplex with 3' ssDNA tail folded as parallel G4
# G4P [16] = biological target: T4, G4P; test: smTIRFM (koff/kon); kon 2.16e9 M-1 s-1, koff 0.61 s-1; EMSA: DNA annealed in 200 mM Tris pH 7.4, 100 mM KCl, 1 mM EDTA; binding 10 min at 25 C, native PAGE; smTIRFM: 100 pM tethered DNA, 100-5000 pM protein, buffer; conditions: protein: recombinant; tags: N-terminal FLAG-6xHis; label: 3' biotin on strand 2; 18 bp duplex with 3' ssDNA tail folded as parallel G4
# 2G4P [17] = biological target: T5, 2G4P; test: smTIRFM (koff/kon); kon 3.9e9 M-1 s-1, koff 0.62 s-1; EMSA: DNA annealed in 200 mM Tris pH 7.4, 100 mM KCl, 1 mM EDTA; binding 10 min at 25 C, native PAGE; smTIRFM: 100 pM tethered DNA, 100-5000 pM protein, buffer; conditions: protein: recombinant; tags: N-terminal FLAG-6xHis; label: 3' biotin on strand 2; 18 bp duplex with 3' ssDNA tail folded as parallel G4
# FJG4P [18] = biological target: T6, FJG4P; test: EMSA; EMSA: DNA annealed in 200 mM Tris pH 7.4, 100 mM KCl, 1 mM EDTA; binding 10 min at 25 C, native PAGE; smTIRFM: 100 pM tethered DNA, 100-5000 pM protein, buffer; conditions: protein: recombinant; tags: N-terminal FLAG-6xHis; label: 3' 6-FAM; intramolecular parallel G4
# 2FJG4P [19] = biological target: T7, 2FJG4P; test: as above; conditions: protein: recombinant; tags: N-terminal FLAG-6xHis; label: 3' 6-FAM; intramolecular parallel G4
# [20] = label: 5' fluorescein, intramolecular G4, mixed topology
# [21] = label: 3' 6-FAM, intramolecular parallel G4
molecule,measurement,setting,value
TGGCGACGGCAGCGAGGCTTAGGGTTAGGGTTAGGGTTTAGGGTTAGGGTTAGGGTTAGGGTTTAGGGTTAGGG / GCCTCGCTGCCGTCGCCA [2hTelG4 (smTIRFM tethering)],Kd,[1],1.9 nM
same,Kd,[2],4.6 nM
same,Kd,[3],14.5 nM
B1,Kd,G4P [4],1.6 ± 0.1 nM
same,Kd,2G4P [5],3.4 ± 0.3 nM
same,Kd,FJG4P [6],32.7 ± 4.8 nM
same,Kd,2FJG4P [7],10.7 ± 1.7 nM
B2,binding result,2G4P [8],binds
same,binding result,2FJG4P [9],binds
TTAGGGTTAGGGTTAGGGTTTAGGGTTAGGG (structured_DNA) [hTelG4 (EMSA)],binding result,FJG4P [10],no binding
same,Kd,G4P [11]; [20],558 ± 157 nM
same,Kd,2G4P [12]; [20],86.2 ± 6 nM
TTAGGGTTAGGGTTAGGGTTTAGGGTTAGGG (structured_DNA) [hTelG4 (mass photometry)],binding result,2FJG4P [13],binds
B3,Kd,FJG4P [14],0.27 ± 0.03 nM
same,Kd,2FJG4P [15],0.2 ± 0.01 nM
same,Kd,G4P [16],0.22 ± 0.02 nM
same,Kd,2G4P [17],0.16 ± 0.01 nM
TGGGTGGGTAGGGTGGGTTT (structured_DNA) [c-MYCG4 (EMSA)],Kd,FJG4P [18],110 ± 58.9 nM
same,Kd,G4P [11]; [21],84.1 ± 8 nM
same,Kd,2FJG4P [19],130 ± 63 nM
same,Kd,2G4P [12]; [21],27.7 ± 4 nM
